Here are results for 3 substances from patent publication US20160185837A1 (Medimmune Limited, priority 2013, published 2016).

Where two headings read alike, the source gives them in different places.

Holding throughout (type): cell-based
Test [1] concerns the target T1, rat GLP-1 receptor (rGLP-1r) (Rattus norvegicus, UniProt P32301).
T1 construct: expressed in transfected cells; host or cells: HEK293s or CHO cells
T1 sequence (P32301 22-463): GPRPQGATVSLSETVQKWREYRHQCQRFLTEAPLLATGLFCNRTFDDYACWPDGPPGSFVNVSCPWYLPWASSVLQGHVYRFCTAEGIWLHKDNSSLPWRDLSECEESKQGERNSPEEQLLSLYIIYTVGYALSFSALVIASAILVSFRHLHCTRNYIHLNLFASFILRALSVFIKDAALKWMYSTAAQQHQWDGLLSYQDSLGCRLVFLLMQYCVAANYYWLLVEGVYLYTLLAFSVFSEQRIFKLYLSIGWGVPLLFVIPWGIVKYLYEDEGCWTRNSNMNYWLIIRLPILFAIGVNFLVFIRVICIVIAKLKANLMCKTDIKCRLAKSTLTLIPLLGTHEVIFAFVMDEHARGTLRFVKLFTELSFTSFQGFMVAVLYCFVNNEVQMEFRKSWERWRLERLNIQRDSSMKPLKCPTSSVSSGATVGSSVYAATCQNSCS
Nature of the test: BSA-cAMP assay, cells expressing rat GLP-1 receptor. The settings on record: BSA-cAMP assay, read-out: rGLP1r cAMP activity EC50. The gist of the method:
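EC50 is the midpoint of an unconstrained 4-parameter logistic fit to HTRF cAMP data, expressed as percent of maximal native agonist response, from two separate occasions. Rodent (mouse, rat) GLP-1R- or GIPR-expressing cells were incubated with compound 30 min at room temperature in 0.1% BSA medium, in duplicate.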

Test [2] deals with T2, human GIP receptor (hGIPr) (Homo sapiens, UniProt P48546).
T2 construct: expressed in transfected cells
T2 sequence (P48546 22-466): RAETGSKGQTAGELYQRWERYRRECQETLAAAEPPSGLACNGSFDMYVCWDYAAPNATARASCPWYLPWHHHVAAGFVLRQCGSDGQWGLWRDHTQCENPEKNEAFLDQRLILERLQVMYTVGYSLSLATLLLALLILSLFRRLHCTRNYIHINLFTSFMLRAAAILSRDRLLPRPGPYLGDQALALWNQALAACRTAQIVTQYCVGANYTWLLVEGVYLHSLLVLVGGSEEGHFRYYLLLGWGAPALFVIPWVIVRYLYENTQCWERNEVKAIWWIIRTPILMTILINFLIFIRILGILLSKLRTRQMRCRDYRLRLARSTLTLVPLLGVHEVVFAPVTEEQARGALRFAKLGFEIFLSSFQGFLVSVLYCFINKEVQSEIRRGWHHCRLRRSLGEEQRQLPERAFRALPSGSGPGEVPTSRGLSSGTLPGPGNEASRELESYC
The experiment in a line: BSA-cAMP assay, cells expressing human GIP receptor. Particulars: BSA-cAMP assay, read-out: hGIPr cAMP activity EC50. The gist of the method: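 EC50 came from an unconstrained 4-parameter logistic fit of HTRF cAMP data expressed as percent of maximal native agonist activation, tested on two occasions. Thawed receptor-expressing cells (hGLP-1r, hGIPr at 0.5×10^5 cells/ml) treated 30 min at room temperature in 0.1% BSA-containing medium; two distinct hGIPr lines.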

A further test has as its target T3, hGIPr (C3) (Homo sapiens, UniProt P48546).
T3 construct: expressed in transfected cells
T3 sequence (P48546 22-466): T2 sequence (P48546 22-466)
Nature of the test: BSA-cAMP assay, second human GIPr cell line hGIPr (C3). Particulars: Batch 1, second hGIPr cell line, read-out: hGIPr (C3) cAMP activity EC50. How it is done:
For human GIPr, two different lines were used, shown as “hGIPr” and “hGIPr (C3)” in Table 11. Peptide activation of these various receptors results in downstream production of cAMP second messenger that can be measured in a functional activity assay.
One basic cAMP assays was performed, differing in the medium used for the assay, the “BSA-cAMP assay”:
BSA-based assay medium: 0.1% bovine serum albumin (BSA) in
Hanks Balanced Salt Solution (GIBCO or Sigma), containing 0.5 mM IBMX (Sigma #17018);
In certain aspects, the assay can also be carried out in medium supplemented with serum albumin that corresponds to the receptor being tested, e.g., human serum albumin for testing cAMP activity at hGIPr or hGLP-1r, rat serum albumin for testing cAMP activity at rGIPr or rGLP-1r, and so on. […]
cAMP levels were measured using a commercially available cAMP dynamic 2 HTRF kit (Cisbio, Cat #62AM4PEJ), following the two step protocol as per manufacturer's recommendations. […] Plates were incubated at room temperature for one hour and then read on an Envision (Perkin Elmer) using excitation wavelength of 320 nm and emission wavelengths of 620 nm & 665 nm. Data was transformed to % Delta F as described in manufacturer's guidelines and then transformed to percent activation of maximal native agonist response and analysed by 4-parameter logistic fit to determine EC50 values. […]

For the substance “IP320 (YSEGTFTSDYAAAAEAAAAAAFAAWLAAAAGGGGGSGGGGSGGGGSGGGGSACPPC)”, the EC50 in test [1] (Batch 1) amounted to 130 nM; in test [2] (Batch 1), 9.6 nM; in test [2] (Batch 2), 44 nM.

On to “IP396 (YSEGTFTSDYSKLLERQAIDEFIAWLLKGGGGGGGSGGGGSGGGGSGGGGSACPPC)”, for which the EC50 in test [1] (Batch 1) is 0.057 nM; in test [1] (Batch 2) it was 0.01 nM; in test [2] (Batch 1) it was 0.0093 nM.

Consider “IP412: Fc fusion, IgG1-TM, SEQ ID NO:387; agonist peptide YSEGTFTSDYSKLLEEEANRLFIEWLLAGG (YSEGTFTSDYSKLLEEEANRLFIEWLLAGGGGGGSGGGGSGGGGSGGGGSATHTCPPC)”, for which, in the test with hGIPr (C3), the EC50 worked out at 1.3 nM.
